From the RNAGym collection of RNA variant scans (doi:10.1021/acssynbio.7b00057)

B1: Pistol ribozyme (parent)
chain: GGGUCGUUGUUCCAUAAUCGCGUGGAUAUGGCACGCAAGUUUCUACCGGGCACCGUAAAUGUCCGACUGGAGCCGUUCGGGCGGCUAUAAACAGACCUCAGGCCCGAAGCGUGGCGGCACCUGCCGCCGGUGGUAAAAAAGAUCGGAAGAGCACACGUCU

Variants of: B1
Assay: aptazyme ON/OFF ratio, guanine; higher = stronger switching; co-transcriptional cleavage with and without guanine

Row | Variant | aptazyme ON/OFF ratio
1 | GGGUCGUCACUUUAUAAUCGCGUGGAUAUGGCACGCAAGUUUCUACCGGGCACCGUAAAUGUCCGACUGGAGCCGUUCGGGCGGCUAUAAACAGACCUCAGGCCCGAAGCGUGGCGGCACCUGCCGCCGGUGGUAAAAAAGAUCGGAAGAGCACACGUCU [U8C G9A U10C C12U C13U] | 1.21
2 | GGGUCGUCACUUGAUAAUCGCGUGGAUAUGGCACGCAAGUUUCUACCGGGCACCGUAAAUGUCCGACUGGAGCCGUUCGGGCGGCUAUAAACAGACCUCAGGCCCGAAGCGUGGCGGCACCUGCCGCCGGUGGUAAAAAAGAUCGGAAGAGCACACGUCU [U8C G9A U10C C12U C13G] | 1.26
3 | GGGUCGUCACUUAAUAAUCGCGUGGAUAUGGCACGCAAGUUUCUACCGGGCACCGUAAAUGUCCGACUGGAGCCGUUCGGGCGGCUAUAAACAGACCUCAGGCCCGAAGCGUGGCGGCACCUGCCGCCGGUGGUAAAAAAGAUCGGAAGAGCACACGUCU [U8C G9A U10C C12U C13A] | 1.29
4 | GGGUCGUCACAGUAUAAUCGCGUGGAUAUGGCACGCAAGUUUCUACCGGGCACCGUAAAUGUCCGACUGGAGCCGUUCGGGCGGCUAUAAACAGACCUCAGGCCCGAAGCGUGGCGGCACCUGCCGCCGGUGGUAAAAAAGAUCGGAAGAGCACACGUCU [U8C G9A U10C U11A C12G C13U] | 1.19
5 | GGGUCGUCACAGGAUAAUCGCGUGGAUAUGGCACGCAAGUUUCUACCGGGCACCGUAAAUGUCCGACUGGAGCCGUUCGGGCGGCUAUAAACAGACCUCAGGCCCGAAGCGUGGCGGCACCUGCCGCCGGUGGUAAAAAAGAUCGGAAGAGCACACGUCU [U8C G9A U10C U11A C12G C13G] | 1.5
6 | GGGUCGUCACAGAAUAAUCGCGUGGAUAUGGCACGCAAGUUUCUACCGGGCACCGUAAAUGUCCGACUGGAGCCGUUCGGGCGGCUAUAAACAGACCUCAGGCCCGAAGCGUGGCGGCACCUGCCGCCGGUGGUAAAAAAGAUCGGAAGAGCACACGUCU [U8C G9A U10C U11A C12G C13A] | 1.23
7 | GGGUCGUCACACCAUAAUCGCGUGGAUAUGGCACGCAAGUUUCUACCGGGCACCGUAAAUGUCCGACUGGAGCCGUUCGGGCGGCUAUAAACAGACCUCAGGCCCGAAGCGUGGCGGCACCUGCCGCCGGUGGUAAAAAAGAUCGGAAGAGCACACGUCU [U8C G9A U10C U11A] | 3.76
8 | GGGUCGUCACUAAAUAAUCGCGUGGAUAUGGCACGCAAGUUUCUACCGGGCACCGUAAAUGUCCGACUGGAGCCGUUCGGGCGGCUAUAAACAGACCUCAGGCCCGAAGCGUGGCGGCACCUGCCGCCGGUGGUAAAAAAGAUCGGAAGAGCACACGUCU [U8C G9A U10C C12A C13A] | 1.27
9 | GGGUCGUCACUAUAUAAUCGCGUGGAUAUGGCACGCAAGUUUCUACCGGGCACCGUAAAUGUCCGACUGGAGCCGUUCGGGCGGCUAUAAACAGACCUCAGGCCCGAAGCGUGGCGGCACCUGCCGCCGGUGGUAAAAAAGAUCGGAAGAGCACACGUCU [U8C G9A U10C C12A C13U] | 1.33
10 | GGGUCGUCACUAGAUAAUCGCGUGGAUAUGGCACGCAAGUUUCUACCGGGCACCGUAAAUGUCCGACUGGAGCCGUUCGGGCGGCUAUAAACAGACCUCAGGCCCGAAGCGUGGCGGCACCUGCCGCCGGUGGUAAAAAAGAUCGGAAGAGCACACGUCU [U8C G9A U10C C12A C13G] | 1.18
11 | GGGUCGUCAAGGUAUAAUCGCGUGGAUAUGGCACGCAAGUUUCUACCGGGCACCGUAAAUGUCCGACUGGAGCCGUUCGGGCGGCUAUAAACAGACCUCAGGCCCGAAGCGUGGCGGCACCUGCCGCCGGUGGUAAAAAAGAUCGGAAGAGCACACGUCU [U8C G9A U10A U11G C12G C13U] | 1.14
12 | GGGUCGUCACAUAAUAAUCGCGUGGAUAUGGCACGCAAGUUUCUACCGGGCACCGUAAAUGUCCGACUGGAGCCGUUCGGGCGGCUAUAAACAGACCUCAGGCCCGAAGCGUGGCGGCACCUGCCGCCGGUGGUAAAAAAGAUCGGAAGAGCACACGUCU [U8C G9A U10C U11A C12U C13A] | 1.37
13 | GGGUCGUCACAUGAUAAUCGCGUGGAUAUGGCACGCAAGUUUCUACCGGGCACCGUAAAUGUCCGACUGGAGCCGUUCGGGCGGCUAUAAACAGACCUCAGGCCCGAAGCGUGGCGGCACCUGCCGCCGGUGGUAAAAAAGAUCGGAAGAGCACACGUCU [U8C G9A U10C U11A C12U C13G] | 1.33
14 | GGGUCGUCAAGUAAUAAUCGCGUGGAUAUGGCACGCAAGUUUCUACCGGGCACCGUAAAUGUCCGACUGGAGCCGUUCGGGCGGCUAUAAACAGACCUCAGGCCCGAAGCGUGGCGGCACCUGCCGCCGGUGGUAAAAAAGAUCGGAAGAGCACACGUCU [U8C G9A U10A U11G C12U C13A] | 1.18
15 | GGGUCGUCAAGUUAUAAUCGCGUGGAUAUGGCACGCAAGUUUCUACCGGGCACCGUAAAUGUCCGACUGGAGCCGUUCGGGCGGCUAUAAACAGACCUCAGGCCCGAAGCGUGGCGGCACCUGCCGCCGGUGGUAAAAAAGAUCGGAAGAGCACACGUCU [U8C G9A U10A U11G C12U C13U] | 1.23
16 | GGGUCGUCAAGUGAUAAUCGCGUGGAUAUGGCACGCAAGUUUCUACCGGGCACCGUAAAUGUCCGACUGGAGCCGUUCGGGCGGCUAUAAACAGACCUCAGGCCCGAAGCGUGGCGGCACCUGCCGCCGGUGGUAAAAAAGAUCGGAAGAGCACACGUCU [U8C G9A U10A U11G C12U C13G] | 1.18
17 | GGGUCGUCACAACAUAAUCGCGUGGAUAUGGCACGCAAGUUUCUACCGGGCACCGUAAAUGUCCGACUGGAGCCGUUCGGGCGGCUAUAAACAGACCUCAGGCCCGAAGCGUGGCGGCACCUGCCGCCGGUGGUAAAAAAGAUCGGAAGAGCACACGUCU [U8C G9A U10C U11A C12A] | 1.44
18 | GGGUCGUCACAGCAUAAUCGCGUGGAUAUGGCACGCAAGUUUCUACCGGGCACCGUAAAUGUCCGACUGGAGCCGUUCGGGCGGCUAUAAACAGACCUCAGGCCCGAAGCGUGGCGGCACCUGCCGCCGGUGGUAAAAAAGAUCGGAAGAGCACACGUCU [U8C G9A U10C U11A C12G] | 1.37

Row | Variant | aptazyme ON/OFF ratio
19 | GGGUCGUCACAUCAUAAUCGCGUGGAUAUGGCACGCAAGUUUCUACCGGGCACCGUAAAUGUCCGACUGGAGCCGUUCGGGCGGCUAUAAACAGACCUCAGGCCCGAAGCGUGGCGGCACCUGCCGCCGGUGGUAAAAAAGAUCGGAAGAGCACACGUCU [U8C G9A U10C U11A C12U] | 1.55
20 | GGGUCGUCAAGUCAUAAUCGCGUGGAUAUGGCACGCAAGUUUCUACCGGGCACCGUAAAUGUCCGACUGGAGCCGUUCGGGCGGCUAUAAACAGACCUCAGGCCCGAAGCGUGGCGGCACCUGCCGCCGGUGGUAAAAAAGAUCGGAAGAGCACACGUCU [U8C G9A U10A U11G C12U] | 1.26
21 | GGGUCGUCACUACAUAAUCGCGUGGAUAUGGCACGCAAGUUUCUACCGGGCACCGUAAAUGUCCGACUGGAGCCGUUCGGGCGGCUAUAAACAGACCUCAGGCCCGAAGCGUGGCGGCACCUGCCGCCGGUGGUAAAAAAGAUCGGAAGAGCACACGUCU [U8C G9A U10C C12A] | 1.35
22 | GGGUCGUCACUUCAUAAUCGCGUGGAUAUGGCACGCAAGUUUCUACCGGGCACCGUAAAUGUCCGACUGGAGCCGUUCGGGCGGCUAUAAACAGACCUCAGGCCCGAAGCGUGGCGGCACCUGCCGCCGGUGGUAAAAAAGAUCGGAAGAGCACACGUCU [U8C G9A U10C C12U] | 1.95
23 | GGGUCGUCACUGCAUAAUCGCGUGGAUAUGGCACGCAAGUUUCUACCGGGCACCGUAAAUGUCCGACUGGAGCCGUUCGGGCGGCUAUAAACAGACCUCAGGCCCGAAGCGUGGCGGCACCUGCCGCCGGUGGUAAAAAAGAUCGGAAGAGCACACGUCU [U8C G9A U10C C12G] | 1.24
24 | GGGUCGUCACUCGAUAAUCGCGUGGAUAUGGCACGCAAGUUUCUACCGGGCACCGUAAAUGUCCGACUGGAGCCGUUCGGGCGGCUAUAAACAGACCUCAGGCCCGAAGCGUGGCGGCACCUGCCGCCGGUGGUAAAAAAGAUCGGAAGAGCACACGUCU [U8C G9A U10C C13G] | 1.1
25 | GGGUCGUCACUCAAUAAUCGCGUGGAUAUGGCACGCAAGUUUCUACCGGGCACCGUAAAUGUCCGACUGGAGCCGUUCGGGCGGCUAUAAACAGACCUCAGGCCCGAAGCGUGGCGGCACCUGCCGCCGGUGGUAAAAAAGAUCGGAAGAGCACACGUCU [U8C G9A U10C C13A] | 1.06
26 | GGGUCGUCACUCUAUAAUCGCGUGGAUAUGGCACGCAAGUUUCUACCGGGCACCGUAAAUGUCCGACUGGAGCCGUUCGGGCGGCUAUAAACAGACCUCAGGCCCGAAGCGUGGCGGCACCUGCCGCCGGUGGUAAAAAAGAUCGGAAGAGCACACGUCU [U8C G9A U10C C13U] | 1.66
27 | GGGUCGUCAAGCGAUAAUCGCGUGGAUAUGGCACGCAAGUUUCUACCGGGCACCGUAAAUGUCCGACUGGAGCCGUUCGGGCGGCUAUAAACAGACCUCAGGCCCGAAGCGUGGCGGCACCUGCCGCCGGUGGUAAAAAAGAUCGGAAGAGCACACGUCU [U8C G9A U10A U11G C13G] | 1.08
28 | GGGUCGUCAAGCUAUAAUCGCGUGGAUAUGGCACGCAAGUUUCUACCGGGCACCGUAAAUGUCCGACUGGAGCCGUUCGGGCGGCUAUAAACAGACCUCAGGCCCGAAGCGUGGCGGCACCUGCCGCCGGUGGUAAAAAAGAUCGGAAGAGCACACGUCU [U8C G9A U10A U11G C13U] | 1.18
29 | GGGUCGUCAAGCAAUAAUCGCGUGGAUAUGGCACGCAAGUUUCUACCGGGCACCGUAAAUGUCCGACUGGAGCCGUUCGGGCGGCUAUAAACAGACCUCAGGCCCGAAGCGUGGCGGCACCUGCCGCCGGUGGUAAAAAAGAUCGGAAGAGCACACGUCU [U8C G9A U10A U11G C13A] | 1.19
30 | GGGUCGUCACAAUAUAAUCGCGUGGAUAUGGCACGCAAGUUUCUACCGGGCACCGUAAAUGUCCGACUGGAGCCGUUCGGGCGGCUAUAAACAGACCUCAGGCCCGAAGCGUGGCGGCACCUGCCGCCGGUGGUAAAAAAGAUCGGAAGAGCACACGUCU [U8C G9A U10C U11A C12A C13U] | 1.19
31 | GGGUCGUCACAAAAUAAUCGCGUGGAUAUGGCACGCAAGUUUCUACCGGGCACCGUAAAUGUCCGACUGGAGCCGUUCGGGCGGCUAUAAACAGACCUCAGGCCCGAAGCGUGGCGGCACCUGCCGCCGGUGGUAAAAAAGAUCGGAAGAGCACACGUCU [U8C G9A U10C U11A C12A C13A] | 1.23
32 | GGGUCGUCACAAGAUAAUCGCGUGGAUAUGGCACGCAAGUUUCUACCGGGCACCGUAAAUGUCCGACUGGAGCCGUUCGGGCGGCUAUAAACAGACCUCAGGCCCGAAGCGUGGCGGCACCUGCCGCCGGUGGUAAAAAAGAUCGGAAGAGCACACGUCU [U8C G9A U10C U11A C12A C13G] | 1.27
33 | GGGUCGUCACUGGAUAAUCGCGUGGAUAUGGCACGCAAGUUUCUACCGGGCACCGUAAAUGUCCGACUGGAGCCGUUCGGGCGGCUAUAAACAGACCUCAGGCCCGAAGCGUGGCGGCACCUGCCGCCGGUGGUAAAAAAGAUCGGAAGAGCACACGUCU [U8C G9A U10C C12G C13G] | 1.4
34 | GGGUCGUCACUGUAUAAUCGCGUGGAUAUGGCACGCAAGUUUCUACCGGGCACCGUAAAUGUCCGACUGGAGCCGUUCGGGCGGCUAUAAACAGACCUCAGGCCCGAAGCGUGGCGGCACCUGCCGCCGGUGGUAAAAAAGAUCGGAAGAGCACACGUCU [U8C G9A U10C C12G C13U] | 1.25
35 | GGGUCGUCACUGAAUAAUCGCGUGGAUAUGGCACGCAAGUUUCUACCGGGCACCGUAAAUGUCCGACUGGAGCCGUUCGGGCGGCUAUAAACAGACCUCAGGCCCGAAGCGUGGCGGCACCUGCCGCCGGUGGUAAAAAAGAUCGGAAGAGCACACGUCU [U8C G9A U10C C12G C13A] | 1.18
36 | GGGUCGUCACUCCAUAAUCGCGUGGAUAUGGCACGCAAGUUUCUACCGGGCACCGUAAAUGUCCGACUGGAGCCGUUCGGGCGGCUAUAAACAGACCUCAGGCCCGAAGCGUGGCGGCACCUGCCGCCGGUGGUAAAAAAGAUCGGAAGAGCACACGUCU [U8C G9A U10C] | 3.49
